Each block holds one molecule with its values, some of them ahead of it.
Tests used:
[1] = target: His-tagged Fc-fused human IL12Rβ2 (human) (UniProt Q99665); test: SPR
[2] = target: T1, His-tagged Fc-fused human IL12Rβ2 (human, UniProt Q99665 24-622); test: SPR
T1 sequence (looked up): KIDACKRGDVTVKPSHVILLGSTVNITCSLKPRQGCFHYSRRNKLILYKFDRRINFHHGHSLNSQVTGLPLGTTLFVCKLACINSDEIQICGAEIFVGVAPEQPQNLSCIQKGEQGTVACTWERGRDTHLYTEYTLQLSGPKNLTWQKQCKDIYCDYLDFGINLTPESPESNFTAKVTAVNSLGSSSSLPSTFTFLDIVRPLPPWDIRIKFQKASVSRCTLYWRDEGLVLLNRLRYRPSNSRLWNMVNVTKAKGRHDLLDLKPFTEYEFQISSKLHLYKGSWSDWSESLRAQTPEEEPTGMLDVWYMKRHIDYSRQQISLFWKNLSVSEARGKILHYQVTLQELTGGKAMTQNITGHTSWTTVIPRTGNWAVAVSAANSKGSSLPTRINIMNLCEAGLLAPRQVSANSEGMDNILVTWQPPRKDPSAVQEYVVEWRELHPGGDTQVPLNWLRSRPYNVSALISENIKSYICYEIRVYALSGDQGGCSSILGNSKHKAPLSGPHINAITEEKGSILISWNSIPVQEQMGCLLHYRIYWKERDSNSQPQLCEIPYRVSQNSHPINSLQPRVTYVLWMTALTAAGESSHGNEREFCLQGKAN

Kd [1]: 7.97 nM
Molecule: proteolytically cleaved XTX301 (active IL12 released from XTX301) (ligand)

Kd [2]: 0.93 nM
B1: wild-type recombinant human IL12 (complex)
chain 1: RNLPVATPDPGMFPCLHHSQNLLRAVSNMLQKARQTLEFYPCTSEEIDHEDITKDKTSTVEACLPLELTKNESCLNSRETSFITNGSCLASRKTSFMMALCLSSIYEDLKMYQVEFKTMNAKLLMDPKRQIFLDQNMLAVIDELMQALNFNSETVPQKSSLEEPDFYKTKIKLCILLHAFRIRAVTIDRVMSYLNAS
chain 2: IWELKKDVYVVELDWYPDAPGEMVVLTCDTPEEDGITWTLDQSSEVLGSGKTLTIQVKEFGDAGQYTCHKGGEVLSHSLLLLHKKEDGIWSTDILKDQKEPKNKTFLRCEAKNYSGRFTCWWLTTISTDLTFSVKSSRGSSDPQGVTCGAATLSAERVRGDNKEYEYSVECQEDSACPAAEESLPIEVMVDAVHKLKYENYTSSFFIRDIIKPDPPKNLQLKPLKNSRQVEVSWEYPDTWSTPHSYFSLTFCVQVQGKSKREKKDRVFTDKTSATVICRKNASISVRAQDRYYSSSWSEWASVPCS
